For 30 variants, enrichment results are on record in article PMC13397619.

B1: NLV3 TCR beta chain (CDR3β only) (parent)
chain: ASSPTGGSPSPLH
partner: MLVPMVATV
B2: NLV2 TCR alpha chain (CDR3α only) (parent)
chain: AGPMKTSYDKVI

One assay covers variants of B1. The experiment in a line: T-Switch: Jurkat TCRβ−/− cells expressing a CDR3 saturation-mutagenesis library, stained with two peptide-HLA-A*02:01 tetramers (original and novel peptide) plus anti-CD3, FACS-sorted into four gates, gDNA sequenced. The settings on record: with HLA-A*02:01 with peptide … (NLV 3-1, the original bait), tetramers 1 µg/mL, 30 min on ice, DP and SW gates expanded about 10 days between rounds ('two to three rounds of selection' in the Methods), gate SP: higher = more of the variant in the gate that binds the original peptide and not the novel one = retained original binding. Fold enrichment of the CDR3 variant in one FACS gate of a two-tetra, unresolved parent, parent is a CDR3 fragment, scale: fold enrichment, numbering: sequential-on-construct, sequence ….
For the variant […] (CDR3 as printed); G7S derived by comparing it with the table's wild-type CDR3 ASSPTGGSPSPLH, the enrichment was 0.

For the variant […] (CDR3 as printed); S10D derived by comparing it with the table's wild-type CDR3 ASSPTGGSPSPLH, the enrichment was determined as 0.543.

[…] (CDR3 as printed); T5D derived by comparing it with the table's wild-type CDR3 ASSPTGGSPSPLH: the enrichment amounted to 0.

For the variant […] (CDR3 as printed); A1S derived by comparing it with the table's wild-type CDR3 ASSPTGGSPSPLH, the enrichment came out at 4.29.

For […] (CDR3 as printed); S2V derived by comparing it with the table's wild-type CDR3 ASSPTGGSPSPLH, the enrichment amounted to 1.18.

Regarding […] (CDR3 as printed); S10C derived by comparing it with the table's wild-type CDR3 ASSPTGGSPSPLH, the enrichment was found to be 0.

For the variant […] (CDR3 as printed); S10M derived by comparing it with the table's wild-type CDR3 ASSPTGGSPSPLH, the enrichment was determined as 9.51.

On to […] (CDR3 as printed); S10R derived by comparing it with the table's wild-type CDR3 ASSPTGGSPSPLH, for which the enrichment was 0.

As to […] (CDR3 as printed); T5A derived by comparing it with the table's wild-type CDR3 ASSPTGGSPSPLH, the enrichment came to 2.2.

In another assay the parent is B2. Described as above. The settings on record: with both tetramers (double-negative gate, binds neither): HLA-A*02:01 with … and with …, tetramers 1 µg/mL, 30 min on ice, SP, DP and SW gates expanded about 10 days between rounds ('two to three rounds of selection' in the Methods), gate DN: OPPOSITE: higher = more of the variant in the gate that binds neither peptide = LESS binding (or no expression; inferred). Fold enrichment of the CDR3 variant in one FACS gate of a two-tetram, unresolved parent, parent is a CDR3 fragment, scale: fold enrichment, numbering: sequential-on-construct, sequence starts at 1.
For the variant […] (CDR3 as printed); G2M derived by comparing it with the table's wild-type CDR3 AGPMKTSYDKVI, the enrichment came out at 1.1.

Regarding […] (CDR3 as printed); K5S derived by comparing it with the table's wild-type CDR3 AGPMKTSYDKVI, the enrichment was found to be 0.492.

In the case of […] (CDR3 as printed); I12A derived by comparing it with the table's wild-type CDR3 AGPMKTSYDKVI, the enrichment was determined as 0.854.

On to […] (CDR3 as printed); D9W derived by comparing it with the table's wild-type CDR3 AGPMKTSYDKVI, for which the enrichment worked out at 1.34.

On to […] (CDR3 as printed); V11Q derived by comparing it with the table's wild-type CDR3 AGPMKTSYDKVI, for which the enrichment is 1.35.

As to […] (CDR3 as printed); M4R derived by comparing it with the table's wild-type CDR3 AGPMKTSYDKVI, the enrichment stood at 0.913.

As to […] (CDR3 as printed); I12T derived by comparing it with the table's wild-type CDR3 AGPMKTSYDKVI, the enrichment is 0.984.

With […] (CDR3 as printed); M4C derived by comparing it with the table's wild-type CDR3 AGPMKTSYDKVI, the enrichment was 0.681.

In the case of […] (CDR3 as printed); V11D derived by comparing it with the table's wild-type CDR3 AGPMKTSYDKVI, the enrichment was determined as 0.904.

Regarding […] (CDR3 as printed); D9F derived by comparing it with the table's wild-type CDR3 AGPMKTSYDKVI, the enrichment came to 1.2.

Consider […] (CDR3 as printed); V11Y derived by comparing it with the table's wild-type CDR3 AGPMKTSYDKVI, for which the enrichment was 1.04.

For […] (CDR3 as printed); G2C derived by comparing it with the table's wild-type CDR3 AGPMKTSYDKVI, the enrichment worked out at 0.956.

Regarding […] (CDR3 as printed); T6F derived by comparing it with the table's wild-type CDR3 AGPMKTSYDKVI, the enrichment turned out to be 1.26.

For […] (CDR3 as printed); D9V derived by comparing it with the table's wild-type CDR3 AGPMKTSYDKVI, the enrichment was determined as 0.959.

Take […] (CDR3 as printed); A1G derived by comparing it with the table's wild-type CDR3 AGPMKTSYDKVI: the enrichment turned out to be 0.876.

Regarding […] (CDR3 as printed); K10E derived by comparing it with the table's wild-type CDR3 AGPMKTSYDKVI, the enrichment was determined as 1.27.

For the variant […] (CDR3 as printed); P3F derived by comparing it with the table's wild-type CDR3 AGPMKTSYDKVI, the enrichment is 1.32.

With […] (CDR3 as printed); S7W derived by comparing it with the table's wild-type CDR3 AGPMKTSYDKVI, the enrichment was 0.807.

On to […] (CDR3 as printed); D9T derived by comparing it with the table's wild-type CDR3 AGPMKTSYDKVI, for which the enrichment amounted to 0.889.

In the case of […] (CDR3 as printed); I12D derived by comparing it with the table's wild-type CDR3 AGPMKTSYDKVI, the enrichment is 0.942.

With […] (CDR3 as printed); P3N derived by comparing it with the table's wild-type CDR3 AGPMKTSYDKVI, the enrichment was 1.07.

The same assay, now with this note: with both tetramers (double-positive gate): HLA-A*02:01 with … and with …, tetramers 1 µg/mL, 30 min on ice, SP, DP and SW gates expanded about 10 days between rounds ('two to three rounds of selection' in the Methods), gate DP: higher = more of the variant in the gate that binds both peptides. Fold enrichment of the CDR3 variant in one FACS gate of a two-tetramer stain. SP/DP/SW gates were expanded and re-sorted bef, unresolved parent, parent is a CDR3 fragment, scale: fold enrichment, numbering: sequential-on-construct, sequence starts at 1.
Consider […] (CDR3 as printed); G2M derived by comparing it with the table's wild-type CDR3 AGPMKTSYDKVI, for which the enrichment stood at 0.

[…] (CDR3 as printed); K5S derived by comparing it with the table's wild-type CDR3 AGPMKTSYDKVI: the enrichment was found to be 0.

With […] (CDR3 as printed); I12A derived by comparing it with the table's wild-type CDR3 AGPMKTSYDKVI, the enrichment is 0.

As for […] (CDR3 as printed); D9W derived by comparing it with the table's wild-type CDR3 AGPMKTSYDKVI, the enrichment amounted to 0.

Regarding […] (CDR3 as printed); V11Q derived by comparing it with the table's wild-type CDR3 AGPMKTSYDKVI, the enrichment was determined as 0.

Consider […] (CDR3 as printed); M4R derived by comparing it with the table's wild-type CDR3 AGPMKTSYDKVI, for which the enrichment is 0.

In the case of […] (CDR3 as printed); I12T derived by comparing it with the table's wild-type CDR3 AGPMKTSYDKVI, the enrichment stood at 0.

Take […] (CDR3 as printed); M4C derived by comparing it with the table's wild-type CDR3 AGPMKTSYDKVI: the enrichment was 0.

With […] (CDR3 as printed); V11D derived by comparing it with the table's wild-type CDR3 AGPMKTSYDKVI, the enrichment is 0.

[…] (CDR3 as printed); D9F derived by comparing it with the table's wild-type CDR3 AGPMKTSYDKVI: the enrichment amounted to 0.

As to […] (CDR3 as printed); V11Y derived by comparing it with the table's wild-type CDR3 AGPMKTSYDKVI, the enrichment was 0.

On to […] (CDR3 as printed); G2C derived by comparing it with the table's wild-type CDR3 AGPMKTSYDKVI, for which the enrichment worked out at 0.

[…] (CDR3 as printed); T6F derived by comparing it with the table's wild-type CDR3 AGPMKTSYDKVI: the enrichment turned out to be 0.

In the case of […] (CDR3 as printed); D9V derived by comparing it with the table's wild-type CDR3 AGPMKTSYDKVI, the enrichment was 0.

As for […] (CDR3 as printed); A1G derived by comparing it with the table's wild-type CDR3 AGPMKTSYDKVI, the enrichment is 0.

With […] (CDR3 as printed); K10E derived by comparing it with the table's wild-type CDR3 AGPMKTSYDKVI, the enrichment stood at 0.

As to […] (CDR3 as printed); P3F derived by comparing it with the table's wild-type CDR3 AGPMKTSYDKVI, the enrichment turned out to be 0.

With […] (CDR3 as printed); S7W derived by comparing it with the table's wild-type CDR3 AGPMKTSYDKVI, the enrichment was determined as 0.

Turning to […] (CDR3 as printed); D9T derived by comparing it with the table's wild-type CDR3 AGPMKTSYDKVI, the enrichment came to 0.

Take […] (CDR3 as printed); I12D derived by comparing it with the table's wild-type CDR3 AGPMKTSYDKVI: the enrichment is 0.

For the variant […] (CDR3 as printed); P3N derived by comparing it with the table's wild-type CDR3 AGPMKTSYDKVI, the enrichment came to 0.
